Source: patent publication US20130344567, “METHOD FOR IMMOBILISING NUCLEIC LIGANDS” (LFB Biotechnologies, published 2013)

Assays:
Details in all cases: tags: recombinant human FVII produced in transgenic rabbit milk (FVII-TG)
[1] = molecular target: T1, Factor VII (FVII/FVIIa, active Gla domain) (Homo sapiens, UniProt P08709;P08709 P08709:61-212,P08709:213-466); test: affinity chromatography; loading capacity 8.0 mg FVII/ml gel at 5.6 mg/ml aptamer; FVIIam yield in eluate 76.8%; Tris, 10 mM CaCl2, EDTA elution
Protocol: (§1) The loading capacity (or in other words the retention capacity) of the affinity supports, expressed in mg of FVII per ml of gel, was evaluated by injection of a composition of recombinant human FVII in “Tp5” buffer (50 mM Tris, 10 mM CaCl₂, pH 7.5).
(§2) Table 3 below gives the loading capacity of the affinity supports as a function of the number of aptamers grafted at their surface.

[2] = molecular target: T1, Factor VII (FVII/FVIIa, active Gla …); test: affinity chromatography; FVIIam yield in eluate 73.8%, 1.1% not retained; 50 mM Tris, 10 mM CaCl2, 4 mM MgCl2, pH 7.5; EDTA elution
[3] = molecular target: T1, Factor VII (FVII/FVIIa, active Gla …); test: affinity chromatography; 95% of FVII retained and eluted with EDTA (coupling pH 4.2); loading capacity 5.4 mg FVII/ml gel at 5.8 mg/ml aptamer; 50 mM Tris, 10 mM CaCl2, pH 7.5
Protocol: as §1, §2

B1: Mapt 2.2CS-PEG(C11) (ssDNA)
DNA: CCGCACGCTACGCGCATGAACCCGCGCACACGACTTGAAGTAGC
modifications: 5' amine hydrophilic C11 spacer (11-amino-3,6,9-trioxaundecan-1-yl), grafted on NHS-activated Sepharose 4 FF
binding result [1]: binds

CCGCACGCTACGCGCATGAACCCGCGCACACGACTTGAAGTAGC (ssDNA, 5' amine C6 spacer, grafted on NHS-activated Sepharose 4 FF) [Mapt 2.2CS C6]
binding result [2]: binds

B2: Mapt 2CS-PEG(C11) (oligo5) (ssDNA)
DNA: ATGCAGCCAGCCGCAGTGTAAGTGAATGCAGACATGGTCTAAGTG
modifications: 5' amine hydrophilic C11 spacer (11-amino-3,6,9-trioxaundecan-1-yl), grafted on NHS-activated Sepharose 4 FF
binding result [3]: binds
